The chains are these.
T1: huNotch2-EGF6-10 (human, UniProt Q04721 219-418)
T1 construct: also called human Notch2 EGF6-10
T1 sequence: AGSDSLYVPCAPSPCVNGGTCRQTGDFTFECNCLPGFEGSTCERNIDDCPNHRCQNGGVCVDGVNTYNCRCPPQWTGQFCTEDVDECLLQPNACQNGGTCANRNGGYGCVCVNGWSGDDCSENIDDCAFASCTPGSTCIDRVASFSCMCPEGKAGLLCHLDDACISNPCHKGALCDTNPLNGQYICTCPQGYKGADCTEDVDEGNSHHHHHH

B1: hu.3107.L6H12 (antibody, V domains shown)
VH: EVQLVQSGAEVKKPGASVKVSCKASGYTFSNYVIHWVRQAPGQGPEWTGYIIPGSGGTKFNEKFKGRATSTVDTSSTTAYMELSRLRSDDTVVYYCARDGAGSFTYWGQGTLVTVSS
VL: DVVMTQSPDSLAVSLGERATINCRSSQSLVHSDGNTYLHWFQQKPGQPPKLLIYRISNRFSGVPDRFSGSGSGTDFTLTISSLQAEDVAVYYCLQSTHFPDTFGGGTKVEIK
notes: also called hu.Notch-3107.L6H12
B2: hu.3107.L7H13 (antibody, V domains shown)
VH: B1 VH with S76I
VL: B1 VL with V2I, F41Y
notes: also called hu.Notch-3107.L7H13
B3: hu.3107.L7H12 (antibody, V domains shown)
VH: B1 VH
VL: B1 VL with V2I, F41Y
notes: also called hu.Notch-3107.L7H12
B4: hu.3107.L6H13 (antibody, V domains shown)
VH: B1 VH with S76I
VL: B1 VL
notes: also called hu.Notch-3107.L6H13
B5: hu.3107.L1H14 (antibody, V domains shown)
VH: EVQLVQSGAEVKKPGESLKISCKGSGYTFSNYVIHWVRQMPGKGPEWTGYIIPGSGGTKFNEKFKGQATISVDKSSTTAYLQWSSLKASDTAMYYCARDGAGSFTYWGQGTLVTVSS
VL: DVVMTQSPLSLPVTLGQPASISCRSSQSLVHSDGNTYLHWFQQRPGQSPRLLIYRISNRFSGVPDRFSGSGSGTDFTLKISRVEAEDVGVYYCLQSTHFPDTFGGGTKVEIK
notes: also called hu.Notch-3107.L1H14
B6: hu.3107.L1H12 (antibody, V domains shown)
VH: B1 VH
VL: B5 VL
notes: also called hu.Notch-3107.L1H12
B7: hu.3107.L6H14 (antibody, V domains shown)
VH: B5 VH
VL: B1 VL
notes: also called hu.Notch-3107.L6H14
B8: hu.3107.L7H15 (antibody, V domains shown)
VH: B5 VH with S76I
VL: B1 VL with V2I, F41Y
notes: also called hu.Notch-3107.L7H15
B9: hu.3107.L1H13 (antibody, V domains shown)
VH: B1 VH with S76I
VL: B5 VL
notes: also called hu.Notch-3107.L1H13
B10: hu.3107.L6H15 (antibody, V domains shown)
VH: B5 VH with S76I
VL: B1 VL
notes: also called hu.Notch-3107.L6H15
B11: hu.3107.L7H14 (antibody, V domains shown)
VH: B5 VH
VL: B1 VL with V2I, F41Y
notes: also called hu.Notch-3107.L7H14
B12: hu.3107.L1H15 (antibody, V domains shown)
VH: B5 VH with S76I
VL: B5 VL
notes: also called hu.Notch-3107.L1H15
B13: rb.2430 (rabbit/human chimeric anti-Notch2 antibody 2430) (antibody, V domains shown)
VH: QSVEESGGRLVTPGTPLTLTCTVSGFSLSSYDMSWVRQAPGKGLEWIGIIQAGSNTLFYASWAKGRFTISKTSTTVDLKITSPTTEDTATYFCARGGVIFIIGHFNLWGPGTLVTVSS
VL: AQVLTQTASSVSAAVGGTVTINCQASQSVVNNRLAWYQQKPGQPPKLLMYGASTLESGVSSRFKGSGSGTQFTLTISGVQCDDAATYYCQGEFLCSSGDCVAFGGGTKVEIK
B14: hu1B2.L7H10 (antibody, V domains shown)
VH: EVQLVESGGGLVQPGGSLKLSCAVSGFTFSDFYMEWVRQASGKGLEWVAASRNKANDFSIVYSASVKDRFTISRDDSKSTAYLQMNSLKTEDTAVYYCSRDSGRWGLDAWGQGTLVTVSS
VL: DIQMTQSPSSVSASVGDRVTITCQTSEDIYSGLAWYQQKPGKSPKLLIYGASRLQDGVPSRFSGSGSGTDYTLTISSLQPEDFATYYCQQGFKYPLTFGGGTKVEIK
notes: Human IgG1 backbone
B15: hu1B2.L7H14 (antibody, V domains shown)
VH: B14 VH with A81L
VL: B14 VL
notes: Human IgG1 backbone; also called hu.1B2.DFS.H14L7
B16: 1B2.v104.huFab.LC_K149C.dPEG6_dimer (other)
heavy: EVQLVESGGGLVQPGGSLKLSCAVSGFTFSDFYMEWVRQASGKGLEWVAAQRNKANDFSIVYSASVKDRFTISRDDSKSTLYLQMNSLKTEDTAVYYCSRDGGKLALDAWGQGTLVTVSSASTKGPSVFPLAPSSKSTSGGTAALGCLVKDYFPEPVTVSWNSGALTSGVHTFPAVLQSSGLYSLSSVVTVPSSSLGTQTYICNVNHKPSNTKVDKKVEPKSCD
light: DIQMTQSPSSVSASVGDRVTITCQTSEDIYSGLAWYQQKPGKSPKLLIYGASRLQDGVPSRFSGSGSGTDYTLTISSLQPEDFATYYCQQGFKYPLTFGGGTKVEIKRTVAAPSVFIFPPSDEQLKSGTASVVCLLNNFYPREAKVQWCVDNALQSGNSQESVTEQDSKDSTYSLSSTLTLSKADYEKHKVYACEVTHQGLSSPVTKSFNRGEC
modifications: engineered Cys (K149C) joined through maleimide to Bis-Mal-PEG6
B17: 1B2.v104.huFab.LC_K149C.PEG_4-arm-Mal-10kD (other)
heavy: B16 heavy
light: B16 light
modifications: engineered Cys (K149C) joined through maleimide to a 4-arm maleimide PEG linker (10 kD)
B18: 1B2.v104.huFab.LC_K149C.dPEG11_dimer (other)
heavy: B16 heavy
light: B16 light
modifications: engineered Cys (K149C) joined through maleimide to Bis-Mal-PEG11
B19: 1B2.v104.huFab.LC_K149C.dPEG_4-arm-Mal-3kD (other)
heavy: B16 heavy
light: B16 light
modifications: engineered Cys (K149C) joined through maleimide to a 4-arm maleimide dPEG linker (3 kD)
B20: 1B2.v104.huFab.LC_K149C.PEG_6-arm-Mal-6kD (other)
heavy: B16 heavy
light: B16 light
modifications: engineered Cys (K149C) joined through maleimide to 6ARM(DP)-MAL-6000
B21: 1B2.v104.huFab.LC_K149C.dPEG19_dimer (other)
heavy: B16 heavy
light: B16 light
modifications: engineered Cys (K149C) joined through maleimide to Bis-Mal-PEG19
B22: 1B2.v104.huFab.LC_K149C (Fab, V domains shown)
VH: B14 VH with S51Q, A81L, S102G, R104K, W105L, G106A
VL: DIQMTQSPSSVSASVGDRVTITCQTSEDIYSGLAWYQQKPGKSPKLLIYGASRLQDGVPSRFSGSGSGTDYTLTISSLQPEDFATYYCQQGFKYPLTFGGGTKVEIKR

Positions count from the first letter of the chain named. Names may count otherwise.

The target of the first assay is T2, human Notch2 on U-87 MG cells (human, UniProt Q04721 26-2471). As to the kind of experiment: cell-based or functional assay.
T2 sequence (Q04721 26-2471): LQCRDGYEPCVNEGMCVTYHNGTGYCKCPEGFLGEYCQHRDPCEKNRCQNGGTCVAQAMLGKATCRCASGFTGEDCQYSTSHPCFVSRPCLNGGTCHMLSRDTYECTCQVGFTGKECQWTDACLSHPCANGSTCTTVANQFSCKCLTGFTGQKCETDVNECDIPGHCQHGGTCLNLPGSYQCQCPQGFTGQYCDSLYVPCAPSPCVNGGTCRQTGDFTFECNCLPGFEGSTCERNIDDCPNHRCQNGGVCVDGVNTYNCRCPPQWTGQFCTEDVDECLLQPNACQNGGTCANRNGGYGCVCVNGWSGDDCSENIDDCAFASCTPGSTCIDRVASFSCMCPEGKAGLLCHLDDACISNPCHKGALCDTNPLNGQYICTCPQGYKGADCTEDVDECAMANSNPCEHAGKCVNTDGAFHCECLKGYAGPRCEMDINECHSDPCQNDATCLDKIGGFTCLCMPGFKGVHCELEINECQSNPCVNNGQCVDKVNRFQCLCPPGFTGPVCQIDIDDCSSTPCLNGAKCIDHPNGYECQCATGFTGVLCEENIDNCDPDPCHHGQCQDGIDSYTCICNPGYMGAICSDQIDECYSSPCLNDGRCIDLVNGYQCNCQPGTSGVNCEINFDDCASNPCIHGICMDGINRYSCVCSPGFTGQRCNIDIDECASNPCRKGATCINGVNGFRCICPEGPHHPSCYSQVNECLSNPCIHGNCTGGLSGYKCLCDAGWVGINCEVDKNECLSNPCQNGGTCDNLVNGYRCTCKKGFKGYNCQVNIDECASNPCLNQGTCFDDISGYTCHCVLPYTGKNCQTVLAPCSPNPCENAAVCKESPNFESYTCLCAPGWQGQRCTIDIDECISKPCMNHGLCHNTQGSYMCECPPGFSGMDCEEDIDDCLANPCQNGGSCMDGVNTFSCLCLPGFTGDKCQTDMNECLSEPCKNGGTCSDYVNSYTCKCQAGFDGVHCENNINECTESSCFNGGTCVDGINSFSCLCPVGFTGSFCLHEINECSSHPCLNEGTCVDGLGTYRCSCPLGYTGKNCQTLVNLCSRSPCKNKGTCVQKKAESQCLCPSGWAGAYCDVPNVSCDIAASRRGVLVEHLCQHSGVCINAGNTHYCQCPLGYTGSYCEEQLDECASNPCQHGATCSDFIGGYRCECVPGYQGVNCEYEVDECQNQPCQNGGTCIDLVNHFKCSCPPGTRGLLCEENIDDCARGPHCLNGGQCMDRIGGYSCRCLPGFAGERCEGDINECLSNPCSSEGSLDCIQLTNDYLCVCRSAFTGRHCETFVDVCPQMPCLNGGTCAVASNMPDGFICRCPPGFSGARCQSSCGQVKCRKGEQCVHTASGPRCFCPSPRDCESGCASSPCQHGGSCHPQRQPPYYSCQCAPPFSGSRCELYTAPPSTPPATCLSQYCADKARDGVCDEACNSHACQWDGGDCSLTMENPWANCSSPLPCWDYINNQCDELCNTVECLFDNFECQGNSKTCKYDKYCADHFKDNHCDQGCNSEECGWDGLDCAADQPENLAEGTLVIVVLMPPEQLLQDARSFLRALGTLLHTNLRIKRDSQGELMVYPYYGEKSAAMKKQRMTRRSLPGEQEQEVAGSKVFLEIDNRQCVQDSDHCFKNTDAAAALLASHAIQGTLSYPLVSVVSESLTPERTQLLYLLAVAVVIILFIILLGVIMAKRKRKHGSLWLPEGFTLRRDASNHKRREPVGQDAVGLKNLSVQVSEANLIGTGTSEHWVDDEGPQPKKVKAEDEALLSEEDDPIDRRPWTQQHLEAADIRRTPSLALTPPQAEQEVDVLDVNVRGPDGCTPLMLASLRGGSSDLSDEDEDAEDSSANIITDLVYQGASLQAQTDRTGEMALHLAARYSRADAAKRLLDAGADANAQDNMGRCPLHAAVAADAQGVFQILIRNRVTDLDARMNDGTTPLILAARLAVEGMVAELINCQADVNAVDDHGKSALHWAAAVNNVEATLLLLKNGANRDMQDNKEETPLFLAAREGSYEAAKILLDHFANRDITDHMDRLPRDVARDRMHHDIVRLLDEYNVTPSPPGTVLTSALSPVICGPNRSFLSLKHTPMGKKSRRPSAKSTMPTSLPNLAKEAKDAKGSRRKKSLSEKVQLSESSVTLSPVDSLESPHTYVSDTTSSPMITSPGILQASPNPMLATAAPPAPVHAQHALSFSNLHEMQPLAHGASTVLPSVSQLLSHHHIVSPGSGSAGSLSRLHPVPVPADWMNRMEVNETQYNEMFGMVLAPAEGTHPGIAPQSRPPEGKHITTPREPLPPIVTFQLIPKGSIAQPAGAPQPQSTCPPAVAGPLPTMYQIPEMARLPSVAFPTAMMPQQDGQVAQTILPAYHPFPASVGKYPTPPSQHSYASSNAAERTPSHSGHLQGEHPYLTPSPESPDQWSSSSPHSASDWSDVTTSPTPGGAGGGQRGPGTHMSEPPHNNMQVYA
For B1, the “Jagged1 IC50” value is 4.71 nM.
Same read-out and setting: the figure for B2 is 5.94 nM.
For the molecule B3, the “Jagged1 IC50” value was determined as 11 nM.
With B4, the “Jagged1 IC50” value is 6.42 nM.
With B5, the “Jagged1 IC50” value is 6.95 nM.
In the case of B6, the “Jagged1 IC50” value came to 7.85 nM.
On to B7, for which the “Jagged1 IC50” value was 6.65 nM.
Regarding B8, the “Jagged1 IC50” value came out at 9.16 nM.
The same measure, in the same setting: with B9 the figure was 4.92 nM.
As to B10, the “Jagged1 IC50” value came out at 8.03 nM.
As to B11, the “Jagged1 IC50” value came out at 10.5 nM.
On the same count and under the same terms, the figure for B12 is 6.08 nM.

The target in a further assay is T1, huNotch2-EGF6-10. Nature of the assay: SPR BIAcore, separate experiment, substantially as for Table 4. How it is done:
(§1) The binding affinities of the antibodies was determined by BIAcore™ T200 machine. Rabbit antibodies were expressed as chimeric antibodies with rabbit variable domains and human constant domains. Rat antibodies were expressed as chimeric antibodies with rat variable domains and human constant regions. Humanized antibodies were expressed in the human IgG1 backbone. For kinetics measurements, antibodies were captured on research grade protein A chip (GE Healthcare) to achieve approximately 300 RU. Ten-fold serial dilutions of huNotch2-EGF6-10 were injected in HBS-P buffer with additional 3 mM CaCl₂ at 37° C. with a flow rate of 100 μL/min. Association rates (ka) and dissociation rates (kd) were calculated using a 1:1 Langmuir binding model (BIAcore™ T200 Evaluation Software version 2.0). The equilibrium dissociation constant (KD) was calculated as the ratio kd/ka.
In a separate experiment, the binding affinities of the humanized versions of the rat 3107 antibody were determined, substantially as described above.
(In general: Surface plasmon resonance follows binding to a sensor surface in real time, without labels.)
With B1, the Kd (commonly the constant that tells how readily two partners part at equilibrium) stood at 9.79 nM; the koff – broadly, the rate constant with which the complex falls apart – was 0.00404 s⁻¹; the association rate constant (kon) (in general, a measure of how fast the partners come together) amounted to 413000 M⁻¹ s⁻¹.
Take B2: the affinity, expressed as Kd, was 9.94 nM; the koff came out at 0.00353 s⁻¹; the kon is 355000 M⁻¹ s⁻¹.
For B3, in that order: 9.54 nM, 0.00367 s⁻¹ and 384000 M⁻¹ s⁻¹.
B4 had a Kd of 9.47 nM, a koff of 0.00424 s⁻¹ and a kon of 448000 M⁻¹ s⁻¹.
The matching figures for B5: 17.5 nM, 0.00631 s⁻¹ and 360000 M⁻¹ s⁻¹.
For B6, in that order: 14.3 nM, 0.00542 s⁻¹ and 380000 M⁻¹ s⁻¹.
B7 yielded a Kd of 10 nM, a koff of 0.00354 s⁻¹ and a kon of 354000 M⁻¹ s⁻¹.
Consider B8, for which the affinity, expressed as Kd, was 11.6 nM; the koff came out at 0.00407 s⁻¹; the kon was determined as 350000 M⁻¹ s⁻¹.
For B9, in that order: 15.5 nM, 0.00587 s⁻¹ and 379000 M⁻¹ s⁻¹.
The matching figures for B10: 9.23 nM, 0.00365 s⁻¹ and 396000 M⁻¹ s⁻¹.
For B11, in that order: 10.4 nM, 0.00359 s⁻¹ and 346000 M⁻¹ s⁻¹.
Take B12: the Kd worked out at 17.9 nM, the koff amounted to 0.00634 s⁻¹ and the association rate constant (kon) stood at 355000 M⁻¹ s⁻¹.

The target of another assay is T2, human Notch2 on U-87 MG cells. Nature of the assay: cell-based or functional assay. This is another data set of the same source.
Consider B13, for which the “Jagged1 IC50” value was 1.03 nM.

Another assay deals with T1, huNotch2-EGF6-10. As to the kind of experiment: SPR BIAcore T200, antibody captured on protein A, 37 C. How it is done:
as §1
Molecule B14 had a Kd of 9.94 nM, a koff of 0.00415 s⁻¹ and an on-rate (kon) of 418000 M⁻¹ s⁻¹.
On to B15, for which the Kd came out at 6.13 nM, the off-rate (koff) was determined as 0.00134 s⁻¹ and the kon is 219000 M⁻¹ s⁻¹.

The target of a further assay is T2, human Notch2 on U-87 MG cells. As to the kind of experiment: cell-based or functional assay. The source holds these as a separate data set.
B16: the “DLL Inhibition (IC50)” value was greater than 1000 nM.
In the case of B17, the “DLL Inhibition (IC50)” value is greater than 500 nM and the “Jag1 Inhibition (IC50)” value is 0.27 nM.
On to B18, for which the “DLL Inhibition (IC50)” value is greater than 1000 nM.
Turning to B19, the “DLL Inhibition (IC50)” value was greater than 500 nM and the “Jag1 Inhibition (IC50)” value worked out at 0.35 nM.
For B20, in that order: greater than 400 nM and 0.21 nM.
On to B21, for which the “DLL Inhibition (IC50)” value is greater than 1000 nM.
Turning to B22, the “DLL Inhibition (IC50)” value stood at 50 nM and the “Jag1 Inhibition (IC50)” value was found to be 120 nM.

(Values after patent US20230322958A1 (Genentech, published 2023).)
